Experimental findings from IntAct's records for PubMed 31515488 are described below.

B1: GTP-binding protein GEM (Homo sapiens), P55040 (parent)
chain: MTLNNVTMRQGTVGMQPQQQRWSIPADGRHLMVQKEPHQYSHRNRHSATPEDHCRRSWSSDSTDSVISSESGNTYYRVVLIGEQGVGKSTLANIFAGVHDSMDSDCEVLGEDTYERTLMVDGESATIILLDMWENKGENEWLHDHCMQVGDAYLIVYSITDRASFEKASELRIQLRRARQTEDIPIILVGNKSDLVRCREVSVSEGRACAVVFDCKFIETSAAVQHNVKELFEGIVRQVRLRRDSKEKNERRLAYQKRKESMPRKARRFWGKIVAKNNKNMAFKLKSKSCHDLSVL
B2: Actin-associated protein FAM107A (Homo sapiens), O95990 (parent)
chain: MYSEIQRERADIGGLMARPEYREWNPELIKPKKLLNPVKASRSHQELHRELLMNHRRGLGVDSKPELQRVLEHRRRNQLIKKKKEELEAKRLQCPFEQELLRRQQRLNQLEKPPEKEEDHAPEFIKVRENLRRIATLTSEEREL
B3: Protein BANP (Homo sapiens), Q8N9N5 (parent)
chain: MMSEHDLADVVQIAVEDLSPDHPVVLENHVVTDEDEPALKRQRLEINCQDPSIKTICLRLDSIEAKLQALEATCKSLEEKLDLVTNKQHSPIQVPMVAGSPLGATQTCNKVRCVVPQTTVILNNDRQNAIVAKMEDPLSNRAPDSLENVISNAVPGRRQNTIVVKVPGQEDSHHEDGESGSEASDSVSSCGQAGSQSIGSNVTLITLNSEEDYPNGTWLGDENNPEMRVRCAIIPSDMLHISTNCRTAEKMALTLLDYLFHREVQAVSNLSGQGKHGKKQLDPLTIYGIRCHLFYKFGITESDWYRIKQSIDSKCRTAWRRKQRGQSLAVKSFSRRTPNSSSYCPSEPMMSTPPPASELPQPQPQPQALHYALANAQQVQIHQIGEDGQVQVGHLHIAQVPQGEQVQITQDSEGNLQIHHVGQDGQLLEATRIPCLLAPSVFKASSGQVLQGAQLIAVASSDPAAAGVDGSPLQGSDIQVQYVQLAPVSDHTAGAQTAEALQPTLQPEMQLEHGAIQIQ
partner: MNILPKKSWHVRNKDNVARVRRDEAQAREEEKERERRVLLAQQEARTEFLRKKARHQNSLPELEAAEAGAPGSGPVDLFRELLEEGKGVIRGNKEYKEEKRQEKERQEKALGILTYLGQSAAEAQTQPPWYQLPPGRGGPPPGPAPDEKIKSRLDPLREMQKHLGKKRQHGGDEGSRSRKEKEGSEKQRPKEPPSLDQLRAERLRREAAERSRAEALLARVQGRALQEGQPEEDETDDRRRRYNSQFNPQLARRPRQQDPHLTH
B4: Pre-B-cell leukemia transcription factor 4 (Homo sapiens), Q9BYU1 (parent)
chain: MAAPPRPAPSPPAPRRLDTSDVLQQIMAITDQSLDEAQARKHALNCHRMKPALFSVLCEIKEKTVVSIRGIQDEDPPDAQLLRLDNMLLAEGVCRPEKRGRGGAVARAGTATPGGCPNDNSIEHSDYRAKLSQIRQIYHSELEKYEQACREFTTHVTNLLQEQSRMRPVSPKEIERMVGAIHGKFSAIQMQLKQSTCEAVMTLRSRLLDARRKRRNFSKQATEVLNEYFYSHLNNPYPSEEAKEELARKGGLTISQVSNWFGNKRIRYKKNMGKFQEEATIYTGKTAVDTTEVGVPGNHASCLSTPSSGSSGPFPLPSAGDAFLTLRTLASLQPPPGGGCLQSQAQGSWQGATPQPATASPAGDPGSINSSTSN

Variants of B1 are the subject of one experiment. The following applies: with ldoc1_human LDOC1, O95751.
Sequence of ldoc1_human LDOC1, O95751 (O95751 whole entry): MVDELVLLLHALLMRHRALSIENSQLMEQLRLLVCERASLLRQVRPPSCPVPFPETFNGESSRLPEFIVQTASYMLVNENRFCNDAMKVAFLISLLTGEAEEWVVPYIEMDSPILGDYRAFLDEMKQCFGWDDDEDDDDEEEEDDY
As for R43G, the “effect of a mutation on the interaction” value is “with no effect”.

In another experiment the parent is B1. The following applies: with tri23_human TRIM23, P36406.
Sequence of tri23_human TRIM23, P36406 (P36406 whole entry): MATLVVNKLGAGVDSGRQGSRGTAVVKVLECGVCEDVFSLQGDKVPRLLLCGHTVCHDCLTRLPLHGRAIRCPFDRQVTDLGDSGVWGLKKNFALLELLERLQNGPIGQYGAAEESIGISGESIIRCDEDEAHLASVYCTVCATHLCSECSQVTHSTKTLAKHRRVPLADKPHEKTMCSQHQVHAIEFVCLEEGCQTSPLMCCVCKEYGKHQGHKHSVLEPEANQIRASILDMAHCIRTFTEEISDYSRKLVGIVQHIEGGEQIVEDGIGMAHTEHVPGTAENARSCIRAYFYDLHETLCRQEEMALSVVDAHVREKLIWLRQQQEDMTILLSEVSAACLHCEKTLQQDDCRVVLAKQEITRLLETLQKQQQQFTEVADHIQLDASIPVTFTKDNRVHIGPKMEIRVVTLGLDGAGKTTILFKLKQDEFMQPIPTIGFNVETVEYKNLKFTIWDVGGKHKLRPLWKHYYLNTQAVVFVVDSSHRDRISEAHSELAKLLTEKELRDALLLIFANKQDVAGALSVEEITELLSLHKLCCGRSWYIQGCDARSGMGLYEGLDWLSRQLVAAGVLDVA
In the case of R43G, the “effect of a mutation on the interaction” value is on record as “with no effect”.

Variants of B1 are the subject of another experiment. The following applies: with nemo_human IKBKG.
Consider R43G, for which the “effect of a mutation on the interaction” value is “with no effect”.

The variants in another experiment derive from B1. The settings on record: with mtus2_human MTUS2, Q5JR59.
Sequence of mtus2_human MTUS2, Q5JR59 (Q5JR59 whole entry): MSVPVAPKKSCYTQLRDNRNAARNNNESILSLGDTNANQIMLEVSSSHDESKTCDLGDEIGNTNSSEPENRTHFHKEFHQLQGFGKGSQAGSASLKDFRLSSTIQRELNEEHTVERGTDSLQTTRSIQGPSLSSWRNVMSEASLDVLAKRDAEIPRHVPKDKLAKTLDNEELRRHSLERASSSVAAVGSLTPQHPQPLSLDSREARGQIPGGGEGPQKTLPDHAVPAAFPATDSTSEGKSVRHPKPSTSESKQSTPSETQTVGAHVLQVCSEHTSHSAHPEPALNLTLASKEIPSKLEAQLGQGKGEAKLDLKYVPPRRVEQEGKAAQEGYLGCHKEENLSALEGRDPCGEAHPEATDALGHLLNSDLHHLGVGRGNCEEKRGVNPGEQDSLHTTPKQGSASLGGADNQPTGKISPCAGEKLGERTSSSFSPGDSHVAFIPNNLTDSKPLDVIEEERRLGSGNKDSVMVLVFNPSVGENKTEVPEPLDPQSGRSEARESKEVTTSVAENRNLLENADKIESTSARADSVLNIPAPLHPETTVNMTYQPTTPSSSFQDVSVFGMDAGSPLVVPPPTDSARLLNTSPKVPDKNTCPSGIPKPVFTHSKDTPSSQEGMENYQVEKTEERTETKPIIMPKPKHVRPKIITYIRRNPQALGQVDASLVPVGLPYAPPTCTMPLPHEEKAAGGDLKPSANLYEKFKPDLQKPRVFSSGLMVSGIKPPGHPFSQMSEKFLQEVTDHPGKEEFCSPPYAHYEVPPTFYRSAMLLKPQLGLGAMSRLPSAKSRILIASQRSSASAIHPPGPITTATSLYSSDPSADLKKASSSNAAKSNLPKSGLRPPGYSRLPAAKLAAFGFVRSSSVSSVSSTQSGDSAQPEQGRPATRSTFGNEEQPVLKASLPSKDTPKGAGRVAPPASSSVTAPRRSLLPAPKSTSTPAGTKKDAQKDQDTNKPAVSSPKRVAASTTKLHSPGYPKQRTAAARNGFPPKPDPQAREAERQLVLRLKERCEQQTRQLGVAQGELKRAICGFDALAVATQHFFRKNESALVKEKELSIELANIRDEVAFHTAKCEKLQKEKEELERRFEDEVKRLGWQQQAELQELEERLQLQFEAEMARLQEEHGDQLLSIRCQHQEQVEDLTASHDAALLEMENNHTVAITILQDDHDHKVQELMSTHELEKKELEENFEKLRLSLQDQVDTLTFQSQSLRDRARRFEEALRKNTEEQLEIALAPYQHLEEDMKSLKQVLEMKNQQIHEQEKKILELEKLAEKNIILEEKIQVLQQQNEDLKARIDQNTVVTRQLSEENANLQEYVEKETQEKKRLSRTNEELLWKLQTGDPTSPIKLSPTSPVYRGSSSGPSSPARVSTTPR
As to R43G, the “effect of a mutation on the interaction” value is reported as “with no effect”.

Another experiment covers variants of B1. The settings on record: with pdli7_human PDLIM7, Q9NR12.
Sequence of pdli7_human PDLIM7, Q9NR12 (Q9NR12 whole entry): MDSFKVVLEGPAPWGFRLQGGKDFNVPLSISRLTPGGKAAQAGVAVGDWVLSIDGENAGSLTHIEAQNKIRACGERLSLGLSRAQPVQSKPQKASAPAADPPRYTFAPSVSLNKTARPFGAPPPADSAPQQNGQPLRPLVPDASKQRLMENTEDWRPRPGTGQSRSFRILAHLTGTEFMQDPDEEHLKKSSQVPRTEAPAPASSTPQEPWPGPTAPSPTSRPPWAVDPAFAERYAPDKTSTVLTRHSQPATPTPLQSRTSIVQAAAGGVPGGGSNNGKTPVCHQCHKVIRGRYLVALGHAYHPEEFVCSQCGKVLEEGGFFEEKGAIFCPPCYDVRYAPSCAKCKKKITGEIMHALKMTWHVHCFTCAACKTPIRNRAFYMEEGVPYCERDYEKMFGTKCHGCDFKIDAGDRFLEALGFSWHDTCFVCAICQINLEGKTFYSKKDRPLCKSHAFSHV
On to R43G, for which the “effect of a mutation on the interaction” value is reported as “with no effect”.

The variants in a further experiment derive from B2. The settings on record: with cc136_human CCDC136, Q96JN2.
Sequence of cc136_human CCDC136, Q96JN2 (Q96JN2 whole entry): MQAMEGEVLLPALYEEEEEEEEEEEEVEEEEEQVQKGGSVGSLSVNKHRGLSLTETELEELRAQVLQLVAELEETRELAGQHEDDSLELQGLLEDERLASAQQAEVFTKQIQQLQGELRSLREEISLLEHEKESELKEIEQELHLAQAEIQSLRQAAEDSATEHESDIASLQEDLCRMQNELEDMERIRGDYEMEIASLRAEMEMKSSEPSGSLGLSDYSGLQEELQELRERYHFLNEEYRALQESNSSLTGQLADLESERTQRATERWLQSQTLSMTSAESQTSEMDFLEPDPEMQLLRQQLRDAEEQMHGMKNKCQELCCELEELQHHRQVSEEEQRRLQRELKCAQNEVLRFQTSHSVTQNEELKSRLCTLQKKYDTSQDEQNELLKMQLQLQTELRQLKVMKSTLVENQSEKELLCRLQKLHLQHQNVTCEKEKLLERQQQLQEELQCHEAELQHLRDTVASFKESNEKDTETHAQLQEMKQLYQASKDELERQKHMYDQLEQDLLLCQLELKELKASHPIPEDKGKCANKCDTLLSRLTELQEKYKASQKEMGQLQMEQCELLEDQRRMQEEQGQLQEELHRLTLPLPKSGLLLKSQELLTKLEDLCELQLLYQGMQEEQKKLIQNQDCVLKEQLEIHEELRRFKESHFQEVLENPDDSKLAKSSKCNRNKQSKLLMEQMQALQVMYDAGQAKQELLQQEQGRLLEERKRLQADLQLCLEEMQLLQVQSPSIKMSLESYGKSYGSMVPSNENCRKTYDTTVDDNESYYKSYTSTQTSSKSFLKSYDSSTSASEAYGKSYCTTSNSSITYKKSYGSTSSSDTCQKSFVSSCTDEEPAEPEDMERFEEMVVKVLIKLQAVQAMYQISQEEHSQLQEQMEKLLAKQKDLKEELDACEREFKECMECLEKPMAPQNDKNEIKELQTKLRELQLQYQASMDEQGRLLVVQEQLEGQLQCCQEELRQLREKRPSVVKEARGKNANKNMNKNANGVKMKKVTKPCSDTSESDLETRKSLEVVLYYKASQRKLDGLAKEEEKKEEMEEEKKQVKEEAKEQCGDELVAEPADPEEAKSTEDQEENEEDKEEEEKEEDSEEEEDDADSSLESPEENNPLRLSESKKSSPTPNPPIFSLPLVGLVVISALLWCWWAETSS
In the case of E141Q, the “effect of a mutation on the interaction” value is reported as “disrupting interaction strength”.
Consider S63R, for which the “effect of a mutation on the interaction” value was “with no effect”.

Variants of B2 are the subject of a further experiment. The settings on record: with traf2_human TRAF2, Q12933.
For E141Q, the “effect of a mutation on the interaction” value is reported as “disrupting interaction strength”.
S63R: the “effect of a mutation on the interaction” value is reported as “with no effect”.

In another experiment the parent is B3. The settings on record: with leng1_human LENG1, Q96BZ8.
For the variant P348S, the “effect of a mutation on the interaction” value is “with no effect”.

Variants of B4 are the subject of the next experiment. The settings on record: with tfp11_human TFIP11, Q9UBB9.
Sequence of tfp11_human TFIP11, Q9UBB9 (Q9UBB9 whole entry): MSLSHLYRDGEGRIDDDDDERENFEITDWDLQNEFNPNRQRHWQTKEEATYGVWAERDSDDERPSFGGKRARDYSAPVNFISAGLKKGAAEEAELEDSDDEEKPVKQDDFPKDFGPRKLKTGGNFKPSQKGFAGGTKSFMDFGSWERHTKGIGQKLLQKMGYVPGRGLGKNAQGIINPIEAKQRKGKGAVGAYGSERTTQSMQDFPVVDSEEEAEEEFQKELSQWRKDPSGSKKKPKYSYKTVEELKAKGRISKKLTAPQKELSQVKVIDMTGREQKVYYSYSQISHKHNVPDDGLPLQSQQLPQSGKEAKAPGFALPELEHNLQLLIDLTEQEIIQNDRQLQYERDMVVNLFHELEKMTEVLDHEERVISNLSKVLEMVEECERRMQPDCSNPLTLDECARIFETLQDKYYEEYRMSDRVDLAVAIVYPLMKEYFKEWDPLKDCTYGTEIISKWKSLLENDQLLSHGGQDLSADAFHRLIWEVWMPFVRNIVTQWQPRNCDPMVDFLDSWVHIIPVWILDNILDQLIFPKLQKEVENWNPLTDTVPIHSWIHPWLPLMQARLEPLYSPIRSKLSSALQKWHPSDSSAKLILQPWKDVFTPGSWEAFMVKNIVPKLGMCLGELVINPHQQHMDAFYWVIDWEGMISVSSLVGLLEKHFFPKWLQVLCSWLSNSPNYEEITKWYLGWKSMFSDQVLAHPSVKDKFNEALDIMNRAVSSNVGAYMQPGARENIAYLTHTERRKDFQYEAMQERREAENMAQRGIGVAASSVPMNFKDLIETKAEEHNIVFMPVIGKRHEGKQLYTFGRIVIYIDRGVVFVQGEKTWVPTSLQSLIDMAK
On to T154M, for which the “effect of a mutation on the interaction” value is given as “with no effect”.
On to R327Q, for which the “effect of a mutation on the interaction” value is “with no effect”.
Consider T283M, for which the “effect of a mutation on the interaction” value is “with no effect”.
